# Experimental data from publication PMC13134614, “In vitro liquid-liquid phase separation induced by respiratory syncytial virus proteins and RNA” (Science Advances, 2025).
# B1: RSV phosphoprotein P residues 127-241 (domain or fragment, respiratory syncytial virus (RSV), UniProt P03421 127-241, looked up)
# chain: TNDNITARLDRIDEKLSEILGMLHTLVVASAGPTSARDGIRDAMIGLREEMIEKIRTEALMTNDRLEAMARLRNEESEKMAKDTSDEVSLNPTSEKLNNLLEGNDSDNDLSLEDF
# notes: Holds the tetramerization domain POD (131 to 151); source: E. coli BL21 (DE3), purified (gel filtration)
# B2: 5' cap 7-mer RNA (ssRNA)
# RNA: AGCGUAC
# modifications: 5' cap (7mGppp, 2'-O-methyl on first nucleotide as generally described); cap G not counted in strand
# Experiments:
# [1] = target: T1, RSV nucleoprotein N fused to mCherry (N-mCherry), N rings (respiratory syncytial virus (RSV), UniProt P03418 1-391); assay: microfluidic diffusional sizing (MDS); 0.5 μM N-mCherry with increasing concentrations of unlabeled P or P domains, incubated 30 min in the dark; 150 mM NaCl, 20 mM tris pH 7.4; hydrodynamic radius of N in triplicate, Fluidity One-M; settings: both partners purified
# T1 construct: Nucleoprotein N of respiratory syncytial virus, 391 residues; from the plasmid pET-mCherry-N; The results call the sample of the MDS experiment 'N rings' (N-RNA oligomers holding bacterial RNA); The plasmid is named pET-mCherry-N, the methods of MDS say 'N-mCherry', so the end of mCherry is open; source: E. coli BL21 (DE3), purified (gel filtration)
# T1 sequence (looked up): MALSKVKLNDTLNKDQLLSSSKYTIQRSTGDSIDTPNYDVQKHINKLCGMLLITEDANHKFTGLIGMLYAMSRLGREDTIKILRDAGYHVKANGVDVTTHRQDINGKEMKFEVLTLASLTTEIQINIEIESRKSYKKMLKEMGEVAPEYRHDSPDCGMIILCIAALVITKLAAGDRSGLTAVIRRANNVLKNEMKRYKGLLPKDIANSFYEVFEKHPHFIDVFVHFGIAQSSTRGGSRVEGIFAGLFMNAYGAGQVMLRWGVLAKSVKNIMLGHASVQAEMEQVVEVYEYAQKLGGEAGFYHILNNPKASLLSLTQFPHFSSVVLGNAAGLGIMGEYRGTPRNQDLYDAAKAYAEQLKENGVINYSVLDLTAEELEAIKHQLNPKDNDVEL
# M2-1 [2] = target: T2, M2-1 (Respiratory syncytial virus, UniProt P04545 1-194); assay: EMSA (native agarose gel, Amido black protein stain); 10 uM protein, 15 uM RNA; no band shift (none or too weak to detect); EMSA: 20 mM Tris pH 8, 150 mM NaCl, 30 min room temperature, 1% native agarose in 1X Tris-glycine; PhaseScan: 20 mM Tris-HCl pH 7.4, 150 mM NaCl, no crowding agent; settings: protein: recombinant; tags: GST fusion vector pGEX-M2-1; chain copies: 4; single strand
# T2 sequence: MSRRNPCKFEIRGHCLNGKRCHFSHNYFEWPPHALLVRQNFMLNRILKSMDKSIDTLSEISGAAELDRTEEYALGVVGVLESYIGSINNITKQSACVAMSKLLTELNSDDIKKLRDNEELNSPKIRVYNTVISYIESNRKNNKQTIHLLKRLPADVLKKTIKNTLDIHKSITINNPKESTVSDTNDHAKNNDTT
# M2-1 [3] = target: T2, M2-1; assay: EMSA (native agarose gel, Amido black protein stain); 10 uM protein, 15 uM RNA; clear band shift; EMSA: 20 mM Tris pH 8, 150 mM NaCl, 30 min room temperature, 1% native agarose in 1X Tris-glycine; PhaseScan: 20 mM Tris-HCl pH 7.4, 150 mM NaCl, no crowding agent; settings: protein: recombinant; tags: GST fusion vector pGEX-M2-1; chain copies: 4; single strand
binder,measurement,setting,value
B1,Kd,[1],2600 ± 900 nM
"AGCGUAC (ssRNA, 5' OH) [5' OH 7-mer RNA]",binding result,M2-1 [2],no binding
B2,binding result,M2-1 [3],binds
